In patent publication US20160257756A1 (CONSEJO SUPERIOR DE INVESTIGACIONES CIENTIFICAS C S I C, published 2016):

Biological target: T1, human chemokine receptor CCR9 (human, UniProt P51686 1-369, N-glycosylated at Asn32 on cells (removed by PNGase F in some Western blots); the letters do not carry this)
T1 construct: On stably transfected HEK293 cells, endogenous on MOLT-4 cells, thymocytes and blood lymphocytes; also as membrane extracts in Western blots (with or without PNGase F); also called hCCR9; human CCR9
T1 sequence: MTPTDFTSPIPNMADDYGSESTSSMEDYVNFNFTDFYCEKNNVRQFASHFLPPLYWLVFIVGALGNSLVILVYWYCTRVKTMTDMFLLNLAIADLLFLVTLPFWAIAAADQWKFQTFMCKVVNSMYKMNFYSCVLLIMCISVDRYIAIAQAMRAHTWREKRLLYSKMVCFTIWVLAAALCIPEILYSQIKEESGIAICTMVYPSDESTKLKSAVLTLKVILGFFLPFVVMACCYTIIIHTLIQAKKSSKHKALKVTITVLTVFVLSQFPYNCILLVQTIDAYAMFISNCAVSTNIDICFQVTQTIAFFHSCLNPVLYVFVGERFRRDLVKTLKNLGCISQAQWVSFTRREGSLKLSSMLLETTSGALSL
Assay: flow cytometry on MOLT-4 cells, hCCL25 10 µg/ml before 91R (0.5 µg/ml)
Method: To study whether CCL25 affects CCR9 recognition by 91R, MOLT-4 cells were preincubated alone or with hCCL25, in the presence of sodium azide to inhibit receptor internalization (40 min, 4° C.), followed by incubation with 91R and flow cytometry analysis.

binding result: binds
B1: recombinant human CCL25 (ligand, UniProt O15444 24-150, looked up)
chain: QGVFEDCCLAYHYPIGWAVLRRAWTYRIQEVSGSCNLPAAIFYLPKRHRKVCGNPKSREVQRAMKLLDARNKVFAKLHHNTQTFQAGPHAVKKLSSGNSKLSSSKFSNPISSSKRNVSLLISANSGL
notes: Bought (Peprotech); also called hCCL25; TECK
